For 2 molecules, Km, kcat and kcat/Km results are on record in publication PMC8469222, “First Dye-Decolorizing Peroxidase from an Ascomycetous Fungus Secreted by Xylaria grammica” (Biomolecules, 2021).

The target in one data set is T1, XgrDyP (Xylaria grammica, UniProt A0A439DJS1).
T1 construct: gene EKO27_g488; wild-type, natively secreted, purified from Xylaria grammica culture liquid (AEX, SEC, MonoQ); 49 kDa on SDS-PAGE; heme protein
T1 sequence (A0A439DJS1 1-493): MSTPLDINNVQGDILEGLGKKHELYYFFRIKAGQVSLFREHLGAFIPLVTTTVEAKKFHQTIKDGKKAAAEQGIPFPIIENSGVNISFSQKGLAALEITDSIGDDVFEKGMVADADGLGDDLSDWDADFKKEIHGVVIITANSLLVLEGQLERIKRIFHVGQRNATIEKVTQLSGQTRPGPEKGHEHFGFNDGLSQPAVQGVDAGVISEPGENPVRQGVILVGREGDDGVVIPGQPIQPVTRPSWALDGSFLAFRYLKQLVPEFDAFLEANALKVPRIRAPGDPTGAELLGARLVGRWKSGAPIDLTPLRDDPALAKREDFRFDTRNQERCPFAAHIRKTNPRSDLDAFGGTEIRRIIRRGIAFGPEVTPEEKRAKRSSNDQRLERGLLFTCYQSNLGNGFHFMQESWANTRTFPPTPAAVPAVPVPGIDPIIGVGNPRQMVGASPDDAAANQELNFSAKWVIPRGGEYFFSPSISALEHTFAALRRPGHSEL
Description: spectrophotometric decolorization at […] nm, Lineweaver-Burk. The data set is classed as biochemical. The settings on record: apparent; 50 mM sodium citrate pH 4.5, H2O2 co-substrate held constant, room temperature.

Substrate in data set [1]: COc1cccc(OC)c1O
Description: purified protein. The settings on record: apparent, 50 mM sodium citrate pH 4.5, H2O2 co-substrate held constant, room temperature. The data set is classed as biochemical, Xylaria grammica.

Substrate in data set [2]: CCn1c(=NN=c2sc3cc(S(=O)(=O)O)ccc3n2CC)sc2cc(S(=O)(=O)O)ccc21
Description: purified protein. The data set is classed as biochemical, Xylaria grammica. Particulars: apparent, 50 mM sodium citrate pH 4.5, H2O2 co-substrate held constant, room temperature.

A word on the Km: it is the concentration of substrate that gives half-maximal velocity. What is called kcat is the number of substrate molecules converted per active site and unit of time at saturation. Broadly, the kcat/Km is the second-order rate constant that governs catalysis at low substrate concentration.

`Nc1c(S(=O)(=O)O)cc(Nc2ccc(S(=O)(=O)O)c(Nc3nc(Cl)nc(Nc4cccc(S(=O)(=O)O)c4)n3)c2)c2c1C(=O)c1ccccc1C2=O` [RBlue5]: the Km on XgrDyP stood at 41 µM.

B1: XgrDyP (Xylaria grammica) (protein)
chain: MSTPLDINNVQGDILEGLGKKHELYYFFRIKAGQVSLFREHLGAFIPLVTTTVEAKKFHQTIKDGKKAAAEQGIPFPIIENSGVNISFSQKGLAALEITDSIGDDVFEKGMVADADGLGDDLSDWDADFKKEIHGVVIITANSLLVLEGQLERIKRIFHVGQRNATIEKVTQLSGQTRPGPEKGHEHFGFNDGLSQPAVQGVDAGVISEPGENPVRQGVILVGREGDDGVVIPGQPIQPVTRPSWALDGSFLAFRYLKQLVPEFDAFLEANALKVPRIRAPGDPTGAELLGARLVGRWKSGAPIDLTPLRDDPALAKREDFRFDTRNQERCPFAAHIRKTNPRSDLDAFGGTEIRRIIRRGIAFGPEVTPEEKRAKRSSNDQRLERGLLFTCYQSNLGNGFHFMQESWANTRTFPPTPAAVPAVPVPGIDPIIGVGNPRQMVGASPDDAAANQELNFSAKWVIPRGGEYFFSPSISALEHTFAALRRPGHSEL
notes: wild-type, natively secreted, purified from Xylaria grammica culture liquid (AEX, SEC, MonoQ); 49 kDa on SDS-PAGE; heme protein
In the case of B1, in “purified protein [1]”, the Km amounted to 12 µM, the kcat came to 29 s⁻¹ and the kcat/Km turned out to be 2.5e+06 M⁻¹ s⁻¹. Moreover, in the data set “purified protein [2]”, the Km stood at 41 µM, the kcat is 12 s⁻¹ and the kcat/Km amounted to 287000 M⁻¹ s⁻¹.
